Experimental data reported in the supplement of paper PMC5998384.

Legend:
[1] = system: HeLa Kyoto; test: thermal stability score vs G1/S (z-score of summed log2 fold changes over temperatures); higher = more thermally stable than in G1/S
[2] = system: HeLa Kyoto; test: melting temperature (median over replicates), in situ; higher = more thermally stable
[3] = system: HeLa Kyoto; test: solubility change mitosis vs G1/S (difference of NP-40 vs SDS log2 ratios) (log2 ratio difference); higher = more soluble in mitosis
[4] = system: HeLa Kyoto; test: solubility in G1/S (NP-40 vs SDS abundance) (log2 ratio); higher = more soluble; details: cell cycle stage: G1/S
[5] = cell cycle stage: early G1 (4.5 h after nocodazole release)
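For melting temperature (median over replicates), in situ in this document: HeLa Kyoto cells synchronized by double thymidine or nocodazole block, proteins quantified by TMT10plex mass spectrometry, three independent biological replicates.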
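For solubility change mitosis vs G1/S (difference of NP-40 vs SDS log2 ratios) in this document: synchronized HeLa Kyoto cells (double thymidine block for G1/S, nocodazole release for mitosis), protein amounts in NP-40 versus SDS lysates quantified by mass spectrometry, three biological replicates.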
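For solubility in G1/S (NP-40 vs SDS abundance) in this document: HeLa Kyoto cells arrested at G1/S by double thymidine block, proteins quantified by TMT10plex mass spectrometry in mild NP-40 versus SDS extracts, three biological replicates.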
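For thermal stability score vs G1/S (z-score of summed log2 fold changes over temperatures) in this document: synchronized HeLa Kyoto cells, proteins quantified by TMT10plex mass spectrometry, three biological replicates, mitosis taken 0.5 h after nocodazole release, G1/S directly after double thymidine block.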

Sequence “MWRGLWTLAAQAARGPRRLCTRRSSGAPAPGSGATIFALSSGQGRCGIAVIRTSGPASGHALRILTAPRDLPLARHASLRLLSDPRSGEPLDRALVLWFPGPQSFTGEDCVEFHVHGGPAVVSGVLQALGSVPGLRPAEAGEFTRRAFANGKLNLTEVEGLADLIHAETEAQRRQALRQLDGELGHLCRGWAETLTKALAHVEAYIDFGEDDNLEEGVLEQADIEVRALQVALGAHLRDARRGQRLRSGVHVVVTGPPNAGKSSLVNLLSRKPVSIVSPEPGTTRDVLETPVDLAGFPVLLSDTAGLREGVGPVEQEGVRRARERLEQADLILAMLDASDLASPSSCNFLATVVASVGAQSPSDSSQRLLLVLNKSDLLSPEGPGPGPDLPPHLLLSCLTGEGLDGLLEALRKELAAVCGDPSTDPPLLTRARHQHHLQGCLDALGHYKQSKDLALAAEALRVARGHLTRLTGGGGTEEILDIIFQDFCVGK [GTPBP3]” has a thermal stability score [1, 5] of -0.238, a thermal stability score ([1]; cell cycle stage: mitosis) of -0.0908 and a melting temperature ([2]; cell cycle stage: G1/S) of 53.2 °C. The melting temperature ([2]; cell cycle stage: mitosis) was 52.4 °C, the “solubility change mitosis (log2)” value [3] was 0.0593 and the “solubility in G1/S (log2)” value [4] was 0.505.

“MWRLPGARAALRVIRTAVEKLSRAEAGSQTAAGAMERAVVRCVPSEPKLSLSFALADGSHKNMQRDQSEPLGRVLSRIATNALKGHAKAAAAKKSRKSRPNASGGAACSGPGPEPAVFCEPVVKLYYREEAVAEDVLNVDAWQDGAVLQIGDVKYKVERNPPAFTELQLPRYIMAGFPVCPKLSLEFGDPASSLFRWYKEAKPGAAEPEVGVPSSLSPSSPSSSWTETDVEERVYTPSNADIGLRLKLHCTPGDGQRFGHSRELESVCVVEAGPGTCTFDHRHLYTKKVTEDALIRTVSYNILADTYAQTEFSRTVLYPYCAPYALELDYRQNLIQKELTGYNADVICLQEVDRAVFSDSLVPALEAFGLEGVFRIKQHEGLATFYRKSKFSLLSQHDISFYEALESDPLHKELLEKLVLYPSAQEKVLQRSSVLQVSVLQSTKDSSKRICVANTHLYWHPKGGYIRLIQMAVALAHIRHVSCDLYPGIPVIFCGDFNSTPSTGMYHFVINGSIPEDHEDWASNGEEERCNMSLTHFFKLKSACGEPAYTNYVGGFHGCLDYIFIDLNALEVEQVIPLPSHEEVTTHQALPSVSHPSDHIALVCDLKWK [PDE12]” showed a thermal stability score [1, 5] of -1.65, a thermal stability score ([1]; cell cycle stage: mitosis) of -1.58 and a melting temperature ([2]; cell cycle stage: G1/S) of 52.1 °C. The melting temperature ([2]; cell cycle stage: mitosis) was 52.3 °C, the “solubility change mitosis (log2)” value [3] was -0.171 and the “solubility in G1/S (log2)” value [4] was 0.0541.

“MWRVCARRAQNVAPWAGLEARWTALQEVPGTPRVTSRSGPAPARRNSVTTGYGGVRALCGWTPSSGATPRNRLLLQLLGSPGRRYYSLPPHQKVPLPSLSPTMQAGTIARWEKKEGDKINEGDLIAEVETDKATVGFESLEECYMAKILVAEGTRDVPIGAIICITVGKPEDIEAFKNYTLDSSAAPTPQAAPAPTPAATASPPTPSAQAPGSSYPPHMQVLLPALSPTMTMGTVQRWEKKVGEKLSEGDLLAEIETDKATIGFEVQEEGYLAKILVPEGTRDVPLGTPLCIIVEKEADISAFADYRPTEVTDLKPQVPPPTPPPVAAVPPTPQPLAPTPSAPCPATPAGPKGRVFVSPLAKKLAVEKGIDLTQVKGTGPDGRITKKDIDSFVPSKVAPAPAAVVPPTGPGMAPVPTGVFTDIPISNIRRVIAQRLMQSKQTIPHYYLSIDVNMGEVLLVRKELNKILEGRSKISVNDFIIKASALACLKVPEANSSWMDTVIRQNHVVDVSVAVSTPAGLITPIVFNAHIKGVETIANDVVSLATKAREGKLQPHEFQGGTFTISNLGMFGIKNFSAIINPPQACILAIGASEDKLVPADNEKGFDVASMMSVTLSCDHRVVDGAVGAQWLAEFRKYLEKPITMLL [DLAT]” was tested, and the thermal stability score [1, 5] was -1.61, the thermal stability score ([1]; cell cycle stage: mitosis) was -3.92 and the melting temperature ([2]; cell cycle stage: G1/S) was 54 °C. For the same sequence, the melting temperature ([2]; cell cycle stage: mitosis) was 52.3 °C, the “solubility change mitosis (log2)” value [3] was -0.12 and the “solubility in G1/S (log2)” value [4] was 0.263.

In the case of “MWSEGRYEYERIPRERAPPRSHPSDGYNRLVNIVPKKPPLLDRPGEGSYNRYYSHVDYRDYDEGRSFSHDRRSGPPHRGDESGYRWTRDDHSASRQPEYRDMRDGFRRKSFYSSHYARERSPYKRDNTFFRESPVGRKDSPHSRSGSSVSSRSYSPERSKSYSFHQSQHRKSVRPGASYKRQNEGNPERDKERPVQSLKTSRDTSPSSGSAVSSSKVLDKPSRLTEKELAEAASKWAAEKLEKSDESNLPEISEYEAGSTAPLFTDQPEEPESNTTHGIELFEDSQLTTRSKAIASKTKEIEQVYRQDCETFGMVVKMLIEKDPSLEKSIQFALRQNLHEIESAGQTWQQVPPVRNTEMDHDGTPENEGEETAQSAPQPPQAPQPLQPRKKRVRRTTQLRRTTGAPDITWGMLKKTTQEAERILLRTQTPFTPENLFLAMLSVVHCNSRKDVKPENKQ [PPHLN1]”, the thermal stability score [1, 5] is reported as 0.616, the thermal stability score ([1]; cell cycle stage: mitosis) is reported as 1.63 and the melting temperature ([2]; cell cycle stage: G1/S) is reported as 52.2 °C. For the same sequence, the melting temperature ([2]; cell cycle stage: mitosis) was 50.4 °C, the “solubility change mitosis (log2)” value [3] was 0.849 and the “solubility in G1/S (log2)” value [4] was -0.763.

“MWSGRKLGSSGGWFLRVLGPGGCNTKAARPLISSAVYVKNQLSGTLQIKPGVFNEYRTIWFKSYRTIFSCLNRIKSFRYPWARLYSTSQTTVDSGEVKTFLALAHKWWDEQGVYAPLHSMNDLRVPFIRDNLLKTIPNHQPGKPLLGMKILDVGCGGGLLTEPLGRLGASVIGIDPVDENIKTAQCHKSFDPVLDKRIEYRVCSLEEIVEETAETFDAVVASEVVEHVIDLETFLQCCCQVLKPGGSLFITTINKTQLSYALGIVFSEQIASIVPKGTHTWEKFVSPETLESILESNGLSVQTVVGMLYNPFSGYWHWSENTSLNYAAYAVKSRVQEHPASAEFVLKGETEELQANACTNPAVHEKLKK [COQ3]” showed a thermal stability score [1, 5] of -0.812, a thermal stability score ([1]; cell cycle stage: mitosis) of -0.988 and a melting temperature ([2]; cell cycle stage: G1/S) of 55.3 °C. The melting temperature ([2]; cell cycle stage: mitosis) was 56.3 °C, the “solubility change mitosis (log2)” value [3] was -0.0133 and the “solubility in G1/S (log2)” value [4] was 0.345.
